Reference: patent publication US20190031760A1 (Hoffmann-La Roche, published 2019)

Tests used:
[1] = molecular target: T1, avi-Fc-human ASGPR H1 stalk (human, biotinylated at the N-terminal Avi tag); assay: SPR (ProteOn XPR36), antigen captured by neutravidin, Fab as analyte;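 note: antigen surface loaded to 200, 400 or 800 RU in PBST pH 7.4, sensorgrams referenced against a buffer-only in-line channel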
T1 construct: Homodimeric Fc fusion (wild type Fc); also called huASGPR H1 stalk; Fc-stalk

[2] = molecular target: T2, avi-Fc-cynomolgus ASGPR H1 stalk (cynomolgus, biotinylated at the N-terminal Avi tag); assay: as above
T2 construct: Homodimeric Fc fusion (wild type Fc); also called cyASGPR H1 stalk

[3] = molecular target: T3, avi-Fc-human ASGPR H1 stalk CRD (human, biotinylated at the N-terminal Avi tag); assay: as above
T3 construct: Homodimeric (bivalent) Fc fusion of the human ASGPR H1 ECD (stalk and CRD); also called huASGPR H1 stalk CRD; Fc-stalk-CRD

[4] = molecular target: T4, avi-Fc-cynomolgus ASGPR H1 stalk CRD (cynomolgus, biotinylated at the N-terminal Avi tag); assay: as above
T4 construct: Homodimeric Fc fusion of the cynomolgus ASGPR H1 ECD; also called cyASGPR H1 stalk CRD

[5] = molecular target: T5, avi-Fc-human CLEC10A stalk CRD (human, biotinylated at the N-terminal Avi tag); assay: as above
T5 construct: Homodimeric Fc fusion of the human CLEC10A ECD, closest homologue of ASGPR H1, used as specificity control; also called huCLEC10A stalk CRD

[6] = molecular target: T6, full-length human ASGPR H1 with a C-terminal SNAP tag, on transfected HEK293 cells (human, UniProt P07306 1-291, SNAP tag labeled with SNAP-Lumi4Tb (terbium)); assay: FRET on HEK293 cells expressing terbium-labeled ASGPR H1-SNAP; IgG1 at 50-0.39 nM, anti-humanFc-d2 as acceptor
T6 construct: whole, on cells; Transiently expressed in HEK293 cells for the FRET assay; also called transmembrane ASGPR H1-SNAP tag fusion protein labeled with terbium
T6 sequence (looked up): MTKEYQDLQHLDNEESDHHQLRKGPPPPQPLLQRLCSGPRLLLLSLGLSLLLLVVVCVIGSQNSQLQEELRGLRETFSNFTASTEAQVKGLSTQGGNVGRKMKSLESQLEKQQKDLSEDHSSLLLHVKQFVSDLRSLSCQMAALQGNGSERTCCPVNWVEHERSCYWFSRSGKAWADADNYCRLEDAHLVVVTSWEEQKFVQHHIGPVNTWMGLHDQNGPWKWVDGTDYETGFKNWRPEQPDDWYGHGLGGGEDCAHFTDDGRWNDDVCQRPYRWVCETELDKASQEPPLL

[7] = molecular target: T7, avi-Fc-human ASGPR H1 CRD (human, UniProt P0DOX5 223-449 = IgG part, biotinylated at the N-terminal Avi tag); assay: SPR (ProteOn XPR36), antigen captured by neutravidin, antibody construct as analyte
T7 construct: also called Fc-CRD; hu/cyASGPR H1 CRD

[8] = molecular target: T8, human ASGPR H1 on ASGPR-positive hepatic cells (HepG2, primary human hepatocytes, Huh-7) (human, UniProt P07306 1-291); assay: FACS on HepG2 cells, antibody 1.25, 6 and 30 µg/ml without or with Alexa488 asialofetuin (100 µg/ml), APC anti-human IgG Fc detection
T8 construct: whole, on cells; Endogenous receptor on cells; the antibodies were selected on H1; also called surface-exposed ASGPR
T8 sequence (looked up): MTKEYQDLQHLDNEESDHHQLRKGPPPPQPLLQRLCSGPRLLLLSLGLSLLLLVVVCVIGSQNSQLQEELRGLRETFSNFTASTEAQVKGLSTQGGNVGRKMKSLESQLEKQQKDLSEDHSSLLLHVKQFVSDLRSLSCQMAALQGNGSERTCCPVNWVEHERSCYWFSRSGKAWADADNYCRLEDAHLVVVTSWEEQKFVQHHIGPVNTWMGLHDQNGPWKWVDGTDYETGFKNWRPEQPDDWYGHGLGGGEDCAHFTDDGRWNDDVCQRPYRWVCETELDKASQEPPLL

[9] = molecular target: T7, avi-Fc-human ASGPR H1 CRD; assay: SPR (ProteOn XPR36), antigen captured by neutravidin, Fab as analyte;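 note: antigen surface loaded to 200, 400 or 800 RU in PBST pH 7.4, sensorgrams referenced against a buffer-only in-line channel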
[10] = molecular target: T8, human ASGPR H1 on ASGPR-positive …; assay: FACS on HepG2 cells, human IgG1 at 30 µg/ml, 30 min at 4°C, FITC anti-human IgG Fc secondary F(ab')2
[11] = molecular target: T8, human ASGPR H1 on ASGPR-positive …; assay: FACS on HepG2 cells, FITC-labeled IgG 30 µg/ml bound at 4°C, washed, then 37°C for up to 120 min; PE anti-Fc detection of surface antibody
[12] = molecular target: T8, human ASGPR H1 on ASGPR-positive …; assay: FACS on HepG2 cells, human IgG1 in a dilution row up to 20 µg/ml, 30 min at 4°C, FITC anti-human IgG Fc secondary
[13] = molecular target: T8, human ASGPR H1 on ASGPR-positive …; assay: FACS on HepG2 cells, human IgG1 at 0.01 to 10 µg/ml

T1 sequence (chain, as listed by the source limits assumed): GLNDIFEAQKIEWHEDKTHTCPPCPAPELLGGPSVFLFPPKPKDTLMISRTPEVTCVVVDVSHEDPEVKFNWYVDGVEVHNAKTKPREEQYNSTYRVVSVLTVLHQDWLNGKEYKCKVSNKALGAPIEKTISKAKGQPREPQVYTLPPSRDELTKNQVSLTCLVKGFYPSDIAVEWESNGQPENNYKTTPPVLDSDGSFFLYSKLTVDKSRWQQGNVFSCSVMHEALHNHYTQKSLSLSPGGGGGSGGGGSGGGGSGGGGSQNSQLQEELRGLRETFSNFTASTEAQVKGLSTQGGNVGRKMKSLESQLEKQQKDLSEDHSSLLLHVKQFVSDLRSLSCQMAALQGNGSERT
T5 sequence (chain, as listed by the source limits assumed): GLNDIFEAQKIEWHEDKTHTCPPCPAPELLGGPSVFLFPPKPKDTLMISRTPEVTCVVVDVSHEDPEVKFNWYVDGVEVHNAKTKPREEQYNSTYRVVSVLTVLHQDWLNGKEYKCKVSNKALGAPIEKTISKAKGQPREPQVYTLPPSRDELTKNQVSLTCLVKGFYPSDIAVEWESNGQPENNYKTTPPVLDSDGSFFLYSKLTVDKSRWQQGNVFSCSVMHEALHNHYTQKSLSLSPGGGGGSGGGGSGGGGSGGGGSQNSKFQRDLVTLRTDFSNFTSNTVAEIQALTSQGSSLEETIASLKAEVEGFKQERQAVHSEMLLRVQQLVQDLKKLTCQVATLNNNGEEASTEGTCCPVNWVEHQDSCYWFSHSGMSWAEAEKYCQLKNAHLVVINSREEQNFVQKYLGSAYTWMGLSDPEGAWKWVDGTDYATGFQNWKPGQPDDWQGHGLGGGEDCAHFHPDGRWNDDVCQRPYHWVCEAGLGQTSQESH
T2 sequence (chain, as listed by the source limits assumed): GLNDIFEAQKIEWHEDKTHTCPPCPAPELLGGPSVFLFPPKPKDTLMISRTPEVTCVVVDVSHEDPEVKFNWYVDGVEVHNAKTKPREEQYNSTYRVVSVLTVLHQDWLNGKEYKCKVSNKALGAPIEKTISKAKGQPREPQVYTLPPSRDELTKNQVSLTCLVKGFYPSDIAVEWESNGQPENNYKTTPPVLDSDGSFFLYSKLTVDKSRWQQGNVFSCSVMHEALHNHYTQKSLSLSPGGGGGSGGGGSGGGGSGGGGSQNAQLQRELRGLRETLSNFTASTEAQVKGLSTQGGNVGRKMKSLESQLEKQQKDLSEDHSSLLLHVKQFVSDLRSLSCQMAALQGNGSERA

B1: 4F3 Fab (Fab, V domains shown)
VH: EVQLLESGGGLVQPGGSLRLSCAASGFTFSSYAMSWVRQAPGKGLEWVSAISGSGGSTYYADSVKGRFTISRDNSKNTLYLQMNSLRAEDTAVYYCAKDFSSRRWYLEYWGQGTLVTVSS
VL: SSELTQDPAVSVALGQTVRITCQGDSLRSYYASWYQQKPGQAPVLVIYGKNNRPSGIPDRFSGSSSGNTASLTITGAQAEDEADYYCNSLERIGYLSYVFGGGTKLTVL
notes: Human lambda Fab from E. coli; also called clone 4F3
A Kd [1] of 29.5 nM, a koff [1] of 0.00445 s⁻¹ and a kon [1] of 151000 M⁻¹ s⁻¹ were found for B1 in this work. It also gave a Kd [2] of 33.6 nM, a koff [2] of 0.0048 s⁻¹ and a kon [2] of 143000 M⁻¹ s⁻¹. For the same binder, the Kd [3] was 18.2 nM, the koff [3] was 0.00408 s⁻¹ and the kon [3] was 224000 M⁻¹ s⁻¹. It also gave a Kd [4] of 21.6 nM, a koff [4] of 0.00365 s⁻¹ and a kon [4] of 169000 M⁻¹ s⁻¹. B1: no binding [5].

B2: 4F3 IgG (antibody, V domains shown)
VH: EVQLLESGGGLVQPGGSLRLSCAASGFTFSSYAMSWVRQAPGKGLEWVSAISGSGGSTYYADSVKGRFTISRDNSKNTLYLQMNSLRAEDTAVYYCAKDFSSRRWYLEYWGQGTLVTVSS
VL: SSELTQDPAVSVALGQTVRITCQGDSLRSYYASWYQQKPGQAPVLVIYGKNNRPSGIPDRFSGSSSGNTASLTITGAQAEDEADYYCNSLERIGYLSYVFGGGTKLTVL
notes: also called 4F3 human IgG1 antibody; clone 4F3
A Kd [6] of 4.5 nM was found for B2 in this work.

B3: R7E12 IgG (antibody, V domains shown)
VH: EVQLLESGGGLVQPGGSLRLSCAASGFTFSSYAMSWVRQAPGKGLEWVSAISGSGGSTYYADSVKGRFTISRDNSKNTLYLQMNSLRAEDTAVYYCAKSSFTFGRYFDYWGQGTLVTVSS
VL: SSELTQDPAVSVALGQTVRITCQGDSLRSYYASWYQQKPGQAPVLVIYGKNNRPSGIPDRFSGSSSGNTASLTITGAQAEDEADYYCNSRKSSSKNVVFGGGTKLTVL
notes: To be rechecked
A Kd [6] of 22 nM was found for B3 in this work.

B4: 52C4 IgG (antibody, V domains shown)
VH: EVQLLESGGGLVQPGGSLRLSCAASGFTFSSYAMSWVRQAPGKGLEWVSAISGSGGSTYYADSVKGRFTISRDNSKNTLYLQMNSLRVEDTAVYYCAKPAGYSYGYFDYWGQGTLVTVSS
VL: SSELTQDPAVSVALGQTVRITCQGDSLRSYYASWYQQKPGQAPVLVIYGKNNRPSGIPDRFSGSSSGNTASLTITGAQAEDEADYYCNSGASSGNQLVFGGGTKLTVL
notes: also called 52C4 human IgG1 antibody
A Kd [7] of 0.89 nM, a koff [7] of 0.000499 s⁻¹ and a kon [7] of 557000 M⁻¹ s⁻¹ were found for B4 in this work. B4: binds [8].

B5: 52C4 Fab (Fab, V domains shown)
VH: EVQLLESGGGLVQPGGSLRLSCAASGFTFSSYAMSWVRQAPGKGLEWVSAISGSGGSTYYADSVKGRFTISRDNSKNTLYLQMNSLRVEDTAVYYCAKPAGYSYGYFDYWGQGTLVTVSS
VL: SSELTQDPAVSVALGQTVRITCQGDSLRSYYASWYQQKPGQAPVLVIYGKNNRPSGIPDRFSGSSSGNTASLTITGAQAEDEADYYCNSGASSGNQLVFGGGTKLTVL
notes: Human lambda Fab from E. coli
A Kd [9] of 28.6 nM, a koff [9] of 0.00396 s⁻¹ and a kon [9] of 139000 M⁻¹ s⁻¹ were found for B5 in this work. For the same binder, the binding result [5] was “no binding”, the Kd [7] was 28.6 nM and the koff [7] was 0.00396 s⁻¹. The kon [7] was 139000 M⁻¹ s⁻¹.

B6: ASGPR 5A4 (antibody, V domains shown)
VH: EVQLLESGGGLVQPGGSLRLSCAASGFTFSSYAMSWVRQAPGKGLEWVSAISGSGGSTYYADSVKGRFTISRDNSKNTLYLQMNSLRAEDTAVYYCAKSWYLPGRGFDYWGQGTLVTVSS
VL: SSELTQDPAVSVALGQTVRITCQGDSLRSYYASWYQQKPGQAPVLVIYGKNNRPSGIPDRFSGSSSGNTASLTITGAQAEDEADYYCNSRLRSGKMVVFGGGTKLTVL
notes: the list has only its Fab and its IgG-IFNα conjugate; also called 5A4 IgG; 5A4 human IgG1 antibody
B6: binds [10].

B7: R7E12 Fab (Fab, V domains shown)
VH: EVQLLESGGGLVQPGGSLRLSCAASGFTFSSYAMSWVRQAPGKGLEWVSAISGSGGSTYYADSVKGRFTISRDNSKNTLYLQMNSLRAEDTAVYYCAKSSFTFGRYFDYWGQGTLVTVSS
VL: SSELTQDPAVSVALGQTVRITCQGDSLRSYYASWYQQKPGQAPVLVIYGKNNRPSGIPDRFSGSSSGNTASLTITGAQAEDEADYYCNSRKSSSKNVVFGGGTKLTVL
notes: To be rechecked
A Kd [3] of 9.12 nM, a koff [3] of 0.00268 s⁻¹ and a kon [3] of 294000 M⁻¹ s⁻¹ were found for B7 in this work. For the same binder, the Kd [4] was 9.55 nM, the koff [4] was 0.00236 s⁻¹ and the kon [4] was 247000 M⁻¹ s⁻¹. B7: no binding [5].

B8: R9E10 Fab (Fab, V domains shown)
VH: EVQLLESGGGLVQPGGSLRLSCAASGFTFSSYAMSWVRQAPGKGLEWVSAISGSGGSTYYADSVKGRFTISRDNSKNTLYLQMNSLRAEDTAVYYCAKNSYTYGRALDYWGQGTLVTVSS
VL: SSELTQDPAVSVALGQTVRITCQGDSLRSYYASWYQQKPGQAPVLVIYGKNNRPSGIPDRFSGSSSGNTASLTITGAQAEDEADYYCNSRNVRGKLVFGGGTKLTVL
notes: Human lambda Fab from E. coli
A Kd [3] of 3.6 nM, a koff [3] of 0.00211 s⁻¹ and a kon [3] of 586000 M⁻¹ s⁻¹ were found for B8 in this work. It also gave a Kd [4] of 4.34 nM, a koff [4] of 0.00199 s⁻¹ and a kon [4] of 460000 M⁻¹ s⁻¹. B8: no binding [5].

B9: R5C2 IgG (antibody, V domains shown)
VH: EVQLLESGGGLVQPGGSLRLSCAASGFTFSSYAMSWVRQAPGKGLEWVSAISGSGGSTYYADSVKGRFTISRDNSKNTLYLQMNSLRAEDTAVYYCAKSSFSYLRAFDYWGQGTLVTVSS
VL: SSELTQDPAVSVALGQTVRITCQGDSLRSYYASWYQQKPGQAPVLVIYGRNNRPSGIPDRFSGSSSGNTASLTITGAQAEDEADYYCNSRDRRGYSVFGGGTKLTVL
notes: also called R5C2 human IgG1 antibody
A Kd [6] of 5.9 nM was found for B9 in this work.

B10: R9E10 IgG (antibody, V domains shown)
VH: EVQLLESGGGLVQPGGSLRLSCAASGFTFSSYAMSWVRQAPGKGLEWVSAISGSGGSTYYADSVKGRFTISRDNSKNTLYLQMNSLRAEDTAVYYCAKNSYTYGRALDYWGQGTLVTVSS
VL: SSELTQDPAVSVALGQTVRITCQGDSLRSYYASWYQQKPGQAPVLVIYGKNNRPSGIPDRFSGSSSGNTASLTITGAQAEDEADYYCNSRNVRGKLVFGGGTKLTVL
notes: also called R9E10 human IgG1 antibody
A Kd [6] of 6.2 nM was found for B10 in this work.

B11: R5C2 Fab (Fab, V domains shown)
VH: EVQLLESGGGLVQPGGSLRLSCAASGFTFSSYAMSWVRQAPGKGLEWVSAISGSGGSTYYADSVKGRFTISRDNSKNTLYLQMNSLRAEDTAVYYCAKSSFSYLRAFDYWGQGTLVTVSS
VL: SSELTQDPAVSVALGQTVRITCQGDSLRSYYASWYQQKPGQAPVLVIYGRNNRPSGIPDRFSGSSSGNTASLTITGAQAEDEADYYCNSRDRRGYSVFGGGTKLTVL
notes: Human lambda Fab from E. coli
A Kd [3] of 2.65 nM, a koff [3] of 0.00112 s⁻¹ and a kon [3] of 423000 M⁻¹ s⁻¹ were found for B11 in this work. For the same binder, the Kd [4] was 3.41 nM, the koff [4] was 0.00114 s⁻¹ and the kon [4] was 334000 M⁻¹ s⁻¹. B11: no binding [5].

B12: 51A12 IgG (antibody, V domains shown)
VH: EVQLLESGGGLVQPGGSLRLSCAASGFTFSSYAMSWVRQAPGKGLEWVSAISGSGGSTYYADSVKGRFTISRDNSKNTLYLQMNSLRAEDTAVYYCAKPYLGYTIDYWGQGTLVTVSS
VL: SSELTQDPAVSVALGQTVRITCQGDSLRSYYASWYQQKPGQAPVLVIYGKNNRPSGIPDRFSASSSGNTASLTITGAQAEDEADYYCNSRDICCNRSVRNFGGGTKLTVL
notes: also called 51A12 human IgG1 antibody; clone 51A12 IgG
A Kd [7] of 0.21 nM, a koff [7] of 7.34e-05 s⁻¹ and a kon [7] of 350000 M⁻¹ s⁻¹ were found for B12 in this work. For the same binder, the Kd [6] was 200 nM.

B13: 51A12_E7 human IgG1 antibody (antibody, V domains shown)
VH: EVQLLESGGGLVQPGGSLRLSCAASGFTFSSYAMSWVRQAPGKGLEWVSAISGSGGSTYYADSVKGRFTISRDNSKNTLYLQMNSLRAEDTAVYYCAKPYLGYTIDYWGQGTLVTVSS
VL: SSELTQDPAVSVALGQTVRITCQGDSLRSYYASWYQQKPGQAPVLVIYGKNNRPSGIPDRFSGSSSGNTASLTITGAQAEDEADYYCNSRDYRYNRAVRPFGGGTKLTVL
notes: also called 51A12_E7 IgG1-converted antibody
B13: binds [11].

B14: 51A12_H6 human IgG1 antibody (antibody, V domains shown)
VH: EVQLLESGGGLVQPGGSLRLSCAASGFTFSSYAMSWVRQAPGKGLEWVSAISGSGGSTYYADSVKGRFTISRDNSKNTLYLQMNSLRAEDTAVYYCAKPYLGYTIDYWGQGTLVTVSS
VL: SSELTQDPAVSVALGQTVRITCQGDSLRSYYASWYQQKPGQAPVLVIYGKNNRPSGIPDRFSGSSSGNTASLTITGAQAEDEADYYCNSRDYKWNRVVRHFGGGTKLTVL
notes: also called 51A12_H6 IgG1-converted antibody
B14: binds [12].

B15: 51A12_C1 human IgG1 antibody (antibody, V domains shown)
VH: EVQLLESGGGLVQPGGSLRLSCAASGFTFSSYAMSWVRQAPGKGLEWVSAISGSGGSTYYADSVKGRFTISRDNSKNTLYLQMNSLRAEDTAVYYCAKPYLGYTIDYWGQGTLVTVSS
VL: SSELTQDPAVSVALGQTVRITCQGDSLRSYYASWYQQKPGQAPVLVIYGKNNRPSGIPDRFSGSSSGNTASLTITGAQAEDEADYYCNSRSYAFNRVVRNFGGGTKLTVL
notes: also called 51A12_C1 IgG1-converted antibody
B15: binds [11].

B16: 51A12_D1 human IgG1 antibody (antibody, V domains shown)
VH: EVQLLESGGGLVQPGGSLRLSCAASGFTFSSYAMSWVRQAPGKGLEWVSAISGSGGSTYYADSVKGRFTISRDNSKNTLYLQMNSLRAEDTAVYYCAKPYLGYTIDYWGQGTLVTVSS
VL: SSELTQDPAVSVALGQTVRITCQGDSLRSYYASWYQQKPGQAPVLVIYGKNNRPSGIPDRFSGSSSGNTASLTITGAQAEDEADYYCNSRTYSYNRAVRPFGGGTKLTVL
notes: also called 51A12_D1 IgG1-converted antibody
B16: binds [13].

B17: 51A12_H3 human IgG1 antibody (antibody, V domains shown)
VH: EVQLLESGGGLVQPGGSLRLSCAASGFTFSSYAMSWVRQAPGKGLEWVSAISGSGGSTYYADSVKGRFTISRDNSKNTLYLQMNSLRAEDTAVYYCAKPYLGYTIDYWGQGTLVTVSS
VL: SSELTQDPAVSVALGQTVRITCQGDSLRSYYASWYQQKPGQAPVLVIYGKNNRPSGIPDRFSGSSSGNTASLTITGAQAEDEADYYCNSRDYKFNRVVRNFGGGTKLTVL
notes: also called 51A12_H3 IgG1-converted antibody
B17: binds [12].

B18: 51A12_C7 human IgG1 antibody (antibody, V domains shown)
VH: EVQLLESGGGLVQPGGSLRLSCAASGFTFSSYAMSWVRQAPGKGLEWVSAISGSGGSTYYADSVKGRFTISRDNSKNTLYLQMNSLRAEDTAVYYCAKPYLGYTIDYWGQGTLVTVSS
VL: SSELTQDPAVSVALGQTVRITCQGDSLRSYYASWYQQKPGQAPVLVIYGKNNRPSGIPDRFSGSSSGNTASLTITGAQAEDEADYYCNSRDIRYNRVVRPFGGGTKLTVL
notes: also called 51A12_C7 IgG1-converted antibody
B18: binds [11].

B19: 51A12_A6 human IgG1 antibody (antibody, V domains shown)
VH: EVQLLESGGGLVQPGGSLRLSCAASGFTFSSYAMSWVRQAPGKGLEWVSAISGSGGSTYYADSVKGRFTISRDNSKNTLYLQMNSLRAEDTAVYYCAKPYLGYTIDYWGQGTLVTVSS
VL: SSELTQDPAVSVALGQTVRITCQGDSLRSYYASWYQQKPGQAPVLVIYGKNNRPSGIPDRFSGSSSGNTASLTITGAQAEDEADYYCNSRTYSYNRAVRNFGGGTKLTVL
notes: also called 51A12_A6 IgG1-converted antibody
B19: binds [12].
